Assay results reported in article PMC9800282.

Molecular target: vitronectin (VTN) (UniProt P04004)
Test: SPR; Biacore T200; LNA043 (~3,000 RU), FN1 or VTN (~500 RU) amine-coupled to CM5; integrins as analytes 0.6–10 μM, single-cycle kinetics, 37 °C, 1× HBS-N, 0.005% Tween 20, 1 mM MgCl2, 1 mM CaCl2, 2 mM MnCl2; 1:1 binding fit

Sequence of vitronectin (VTN) (P04004 20-478): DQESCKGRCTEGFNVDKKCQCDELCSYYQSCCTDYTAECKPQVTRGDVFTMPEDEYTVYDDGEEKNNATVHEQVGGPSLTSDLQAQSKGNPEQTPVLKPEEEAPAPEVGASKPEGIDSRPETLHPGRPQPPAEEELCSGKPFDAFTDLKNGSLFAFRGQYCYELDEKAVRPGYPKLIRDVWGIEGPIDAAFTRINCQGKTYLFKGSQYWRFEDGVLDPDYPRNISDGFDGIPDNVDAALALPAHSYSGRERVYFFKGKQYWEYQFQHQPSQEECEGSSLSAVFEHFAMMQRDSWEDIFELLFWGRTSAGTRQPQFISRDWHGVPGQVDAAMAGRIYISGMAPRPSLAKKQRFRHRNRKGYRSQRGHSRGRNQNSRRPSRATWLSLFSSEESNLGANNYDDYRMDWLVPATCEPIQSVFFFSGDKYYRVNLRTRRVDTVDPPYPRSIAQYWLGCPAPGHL

A Kd of 997 nM was found for “recombinant human αvβ3 integrin (from UniProt P06756 31-1048; P05106 27-718) (complex)” in this work.
